Source: US20130136743A1 (LABORATOIRE FRANCAIS DU FRACTIONNEMENT ET DES …, published 2013)

Columns and labels:
[1] = target: T1, AMHRII receptor expressed on cells (cov434-AMHRII, Asc 1, META 2815) (human, UniProt Q16671 18-573); experiment: saturation binding of 125I-labelled antibody to cov434-AMHRII cells, Scatchard analysis
T1 construct: whole, on cells; The cell line is named in the assay or readout field of each row; also called AMHRII antigen
T1 sequence (looked up): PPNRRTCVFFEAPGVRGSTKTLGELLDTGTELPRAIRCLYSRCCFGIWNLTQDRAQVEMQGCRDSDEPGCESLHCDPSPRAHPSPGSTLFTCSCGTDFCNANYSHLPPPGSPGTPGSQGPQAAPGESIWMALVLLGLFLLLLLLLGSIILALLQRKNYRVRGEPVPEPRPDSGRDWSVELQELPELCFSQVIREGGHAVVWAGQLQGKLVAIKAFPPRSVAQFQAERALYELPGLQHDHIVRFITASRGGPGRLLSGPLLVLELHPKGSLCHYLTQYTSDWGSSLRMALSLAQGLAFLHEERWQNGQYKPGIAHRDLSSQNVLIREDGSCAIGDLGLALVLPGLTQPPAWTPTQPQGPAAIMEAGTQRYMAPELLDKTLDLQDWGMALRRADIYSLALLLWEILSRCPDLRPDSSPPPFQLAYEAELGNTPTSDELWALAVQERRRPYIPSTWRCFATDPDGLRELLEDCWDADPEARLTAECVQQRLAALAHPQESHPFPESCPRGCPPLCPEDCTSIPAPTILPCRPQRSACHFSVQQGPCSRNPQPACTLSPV
Procedure: Briefly, KD was determined by the saturation method, by adding increasing doses of radiolabelled antibody to a constant number of cov434-AMHRII cells. […] For each antibody, fourfold dilutions were carried out in PBS/BSA 0.5% from the solutions of labelled and unlabelled antibody (84.4 μg/ml). The nonspecific fixation was evaluated by incubating the cells in the presence of a 100 times molar excess of unlabelled antibody.
After incubation, the samples were frozen in liquid nitrogen and then analysed in a gamma counter. The specific fixation was determined by subtracting the fixation obtained in the presence of an excess of unlabelled antibody.

[2] = target: T2, Epitope peptide GGGGNLTQDRAQVEMQGSR; experiment: method not stated; Example 2, heading names cov434-AMHR-II cells and the epitope peptide
T2 peptide: GGGGNLTQDRAQVEMQGSR

[3] = target: T3, AMHR-II/Fc fusion protein (human, UniProt Q16671 18-149, limits assumed); experiment: direct phage ELISA, target coated at 500 ng/well; 3.00E+10 phages per well as printed (second row)
T3 construct: also called AMHR-II recombinant receptor expressed in the form of fusion protein with a region Fc; recombinant target; not shown: Fc region

[4] = target: T3, AMHR-II/Fc fusion protein; experiment: direct phage ELISA, target coated at 500 ng/well; 3.00E+09 phages per well as printed (second row)
[5] = target: T3, AMHR-II/Fc fusion protein; experiment: direct phage ELISA, target coated at 500 ng/well; 3.00E+09 phages per well as printed
[6] = target: T3, AMHR-II/Fc fusion protein; experiment: direct phage ELISA, target coated at 500 ng/well; 3.00E+09 phages per well as printed (third row)
[7] = target: T3, AMHR-II/Fc fusion protein; experiment: direct phage ELISA, target coated at 500 ng/well; 3.00E+10 phages per well as printed
[8] = target: T3, AMHR-II/Fc fusion protein; experiment: SPR, BIAcore X100; ratio against the chimeric 12G4
Procedure: (§1) The affinity of the antibodies for their antigen, AMHR-II, is determined by the SPR (Surface Plasmon Resonance) technique on BIACore X100 (BIACore, GE Healthcare). The AMHR-II recombinant receptor, expressed in the form of fusion protein with a region Fc, is immobilized by covalent coupling between its amine functions and the carboxyl groups of dextran activated in succinimide esters, present on the surface of the type CM5 sensor chip. The COOH groups of the sensor chip are activated for 7 minutes with EDC/NHS mixture (0.1 M of N-hydroxysuccinimide and 0.1 M of 3-(N,N-dimethylamino)propyl-N-ethylcarbodiimide) at a flow of 10 μl/min then the AMHR-II/Fc fusion protein, diluted to 5 μg/ml in 10 mM sodium acetate buffer, pH 4.0, is injected at […] on track 2 of the sensor chip so as to reach 300 RU. The ester groups that have not reacted with the amines of the fusion protein are deactivated by injection of a solution of ethanolamine-HCl 1M, pH 8.5 for 7 min at a flow of 10 μl:min. Track 1, serving as negative control, was activated and deactivated like track 2.
(§2) All the measurements are carried out at 25° C. The antibodies to be analysed are diluted in HBS-EP running buffer (BIACore, GE Healthcare) at concentrations from 6.25 to 3333 nM and injected on the sensor chip for 2 min at a flow of 30 μl/min. The dissociation step is monitored for 10 min and then the surface is regenerated by injection of 10 mM glycine buffer, pH 1.5 for 30 s at 10 μl/min.
(§3) The sensorgrams obtained are analysed using the 1:2 kinetic model of the BIAevaluation 3.1 software.

[9] = target: T3, AMHR-II/Fc fusion protein; experiment: SPR, BIAcore X100; AMHR-II/Fc immobilised on CM5 chip, antibody injected; 25 C
Procedure: as §1, §2, §3

[10] = target: T1, AMHRII receptor expressed on cells …; experiment: cell-based or functional assay
[11] = target: T1, AMHRII receptor expressed on cells …; experiment: cell-based or functional assay; remark: listed apart in the source
[12] = target: T1, AMHRII receptor expressed on cells …; experiment: cell-based or functional assay; remark: listed apart in the source

B1: murine 12G4 monoclonal antibody (antibody, V domains shown)
VH: QVQLQQSGPELVKPGASVRMSCKASGYTFTSYHIHWVKQRPGQGLEWIGWIYPGDDSTKYNEKFKGKTTLTADKSSSTAYMLLSSLTSEDSAIYFCTRGDRFAYWGQGTLVTVSA
VL: QIVLTQSPAIMSASLGEGITLTCSASSSVRYIHWYQQKSGTSPKLLIYSTSNLASGVPSRFSGSGSGTFHSLTISSVEAEDAADYYCLQWSSYPWTFGGGTKLEIK
notes: also called mLFB112; original murine 12G4 antibody
[1]
  Kd: 15.4 nM
[2]
  Kd: ~100 nM
  koff: 0.00147 s⁻¹

B2: huVH-VL, humanized antibody huLFB112 expressed as scFv on phage (scFv, part only; not given: scFv linker and phage partner, V domains shown, not shown: another chain or arm of the molecule; large carriers; small tags and cut ends)
VH: QVQLVQSGAEVKKPGASVKVSCKASGYTFTSYHIHWVRQAPGQRLEWMGWIYPGDDSTKYSQKFQGRVTITRDTSASTAYMELSSLRSEDTAVYYCTRGDRFAYWGQGTLVTVSS
VL: DIQMTQSPSTLSASVGDRVTITCRASSSVRYIAWYQQKPGKAPKLLIYSTSSLESGVPSRFSGSGSGTEFTLTISSLQPDDFATYYCLQWSSYPWTFGGGTKVEIK
[3]
  OD 450 nm, +covering: 0.689 OD
  OD 450 nm, Diff (specific binding): 0.593 OD
[4]
  OD 450 nm, +covering: 0.226 OD
  OD 450 nm, Diff (specific binding): 0.17 OD
[5]
  OD 450 nm, +covering: 0.395 OD
  OD 450 nm, Diff (specific binding): 0.323 OD
[6]
  OD 450 nm, +covering: 0.135 OD
  OD 450 nm, Diff (specific binding): 0.086 OD
[7]
  OD 450 nm, +covering: 1.25 OD
  OD 450 nm, Diff (specific binding): 1.1 OD

B3: mutated humanized 12G4 antibody 3C-23K produced in YB2/0 (antibody, human IgG1, kappa, V domains shown)
VH: QVRLVQSGAEVKKPGASVKVSCKASGYTFTSYHIHWVRQAPGQRLEWMGWIYPGDDSTKYSQKFQGRVTITRDTSASTAYMELSSLRSEDTAVYYCTRGDRFAYWGQGTLVTVSS
VL: DIQMTQSPSTLSASVGDRVTITCRASSSVRYIAWYQQKPGKAPKLLTYPTSSLKSGVPSRFSGSGSGTEFTLTISSLQPDDFATYYCLQWSSYPWTFGGGTKVEIKR
notes: Chains without leader; also called 3C_23K YB2/0; 3C-23K-YB2/0
[8]
  KD chimeric/KD mutated: 10
[9]
  Kd: 21 nM
  koff: 0.00086 s⁻¹
  kon: 40000 M⁻¹ s⁻¹
[10]
  EC50 (ng/ml), ADCC on ASC1 cells: 1.7 ng/mL
  Emax (% of lysis), ADCC on ASC1 cells: 79 % of lysis
[1]
  Kd: 5.3 nM
  fold affinity against the original murine 12G4 antibody: ~3 fold
[11]
  50% relative, ADCC on the COV434-AMHRII line (chimeric antibody = 1): 0.84
  EC50, ADCC on Asc 1 cells: ~2.24 ng/mL
  EC50, ADCC on META 2815 cells: 30.5 ng/mL
  fold cytotoxic activity on Asc 1 cells against 3C-23K-CHO: ~40 fold
  fold cytotoxic activity on META 2815 cells against 3C-23K-CHO: ~146 fold
[12]
  % of lysis of ASC1 cells (ADCC with NK cells, LDH release) at 0.001 ng/ml antibody: 0%
  % of lysis of ASC1 cells (ADCC with NK cells, LDH release) at 0.005 ng/ml antibody: 8%
  % of lysis of ASC1 cells (ADCC with NK cells, LDH release) at 0.05 ng/ml antibody: 10%
  % of lysis of ASC1 cells (ADCC with NK cells, LDH release) at 0.5 ng/ml antibody: 26%
  % of lysis of ASC1 cells (ADCC with NK cells, LDH release) at 5 ng/ml antibody: 51%
  % of lysis of ASC1 cells (ADCC with NK cells, LDH release) at 50 ng/ml antibody: 67%
  % of lysis of ASC1 cells (ADCC with NK cells, LDH release) at 500 ng/ml antibody: 79%
  % of lysis of ASC1 cells (ADCC with NK cells, LDH release) at 5000 ng/ml antibody: 75%

B4: mutated humanized 12G4 antibody 3C-23 produced in YB2/0 (antibody, human IgG1, kappa, V domains shown)
VH: QVRLVQSGAEVKKPGASVKVSCKASGYTFTSYHIHWVRQAPGQRLEWMGWIYPGDDSTKYSQKFQGRVTITRDTSASTAYMELSSLRSEDTAVYYCTRGDRFAYWGQGTLVTVSS
VL: DIQMTQSPSTLSASVGDRVTITCRASSSVRYIAWYQQKPGKAPKLLTYPTSSLESGVPSRFSGSGSGTEFTLTISSLQPDDFATYYCLQWSSYPWTFGGGTKVEIKR
notes: Chains without leader; Mutations VH-Q3R, VL-I177T/S179P; also called 3C_23 YB2/0; R901 3C23
[8]
  KD chimeric/KD mutated: 2.3
[9]
  Kd: 92 nM
  koff: 0.0033 s⁻¹
  kon: 36000 M⁻¹ s⁻¹
[10]
  EC50 (ng/ml), ADCC on ASC1 cells: 6.3 ng/mL
  Emax (% of lysis), ADCC on ASC1 cells: 65.5 % of lysis
[1]
  Kd: 7.33 nM
[11]
  50% relative, ADCC on the COV434-AMHRII line (chimeric antibody = 1): 6.41
[12]
  % of lysis of ASC1 cells (ADCC with NK cells, LDH release) at 0.001 ng/ml antibody: 0%
  % of lysis of ASC1 cells (ADCC with NK cells, LDH release) at 0.005 ng/ml antibody: 8%
  % of lysis of ASC1 cells (ADCC with NK cells, LDH release) at 0.05 ng/ml antibody: 9%
  % of lysis of ASC1 cells (ADCC with NK cells, LDH release) at 0.5 ng/ml antibody: 13%
  % of lysis of ASC1 cells (ADCC with NK cells, LDH release) at 5 ng/ml antibody: 35%
  % of lysis of ASC1 cells (ADCC with NK cells, LDH release) at 50 ng/ml antibody: 46%
  % of lysis of ASC1 cells (ADCC with NK cells, LDH release) at 500 ng/ml antibody: 52%
  % of lysis of ASC1 cells (ADCC with NK cells, LDH release) at 5000 ng/ml antibody: 63%

B5: mutated humanized 12G4 antibody 6B-78 produced in YB2/0 (antibody, human IgG1, kappa, V domains shown)
VH: QVQLVQSGAEVKKPGASVKVSCKASGYTFTSYHIHWVRQAPGQRLEWMGWIYPGDDSTKYSQKFQGRVTITRDTSASTAYMELSSLRSEDTAVYYCTRGDRFAYWGQGTLVTVSS
VL: DIQMTQSPSTLSASVGDRVTITCRASSSVRYIAWYQQKPGKAPKLLIYSTSSLKSGVPSRFSGSGSGTEFTLTISSLQPDDFATYYCLQWSSYPWTFGGGTKVEIKR
notes: Chains without leader; Mutation VL-E184K; also called 6B_78 YB2/0; R901 6B78
[8]
  KD chimeric/KD mutated: 2.6
[9]
  Kd: 82 nM
  koff: 0.0013 s⁻¹
  kon: 16000 M⁻¹ s⁻¹
[10]
  EC50 (ng/ml), ADCC on ASC1 cells: 5.38 ng/mL
  Emax (% of lysis), ADCC on ASC1 cells: 51.9 % of lysis
[1]
  Kd: 6.68 nM
[11]
  50% relative, ADCC on the COV434-AMHRII line (chimeric antibody = 1): 36.9
[12]
  % of lysis of ASC1 cells (ADCC with NK cells, LDH release) at 0.001 ng/ml antibody: 0%
  % of lysis of ASC1 cells (ADCC with NK cells, LDH release) at 0.005 ng/ml antibody: 14%
  % of lysis of ASC1 cells (ADCC with NK cells, LDH release) at 0.05 ng/ml antibody: 5%
  % of lysis of ASC1 cells (ADCC with NK cells, LDH release) at 0.5 ng/ml antibody: 3%
  % of lysis of ASC1 cells (ADCC with NK cells, LDH release) at 5 ng/ml antibody: 28%
  % of lysis of ASC1 cells (ADCC with NK cells, LDH release) at 50 ng/ml antibody: 42%
  % of lysis of ASC1 cells (ADCC with NK cells, LDH release) at 500 ng/ml antibody: 48%
  % of lysis of ASC1 cells (ADCC with NK cells, LDH release) at 5000 ng/ml antibody: 53%
